This data set deals with the molecule itself. As to the kind of experiment: high-speed atomic force microscopy (HS-AFM); xylanase alone on a clean mica surface, tapping mode, 100 mM sodium phosphate buffer pH 6; 2 uL of 12.5 ug/mL xylanase added into 80 uL buffer during imaging; self-association seen as transient dimers and trimers of single molecules on the surface.

“And” between values parts separate entries of the source, which are not always exact repeats. Equal values may be shown once.

B1: Endo-1,4-β-D-xylanase from Neocallimastix patriciarum (GH11) (enzyme)
chain: AEFQSFCSSASHSGQSVKVTGNKVGTIGGVGYELWADSGNNSATFYSDGSFSCTFQNAGDYLCRSGLSFDSTKTPSQIGRMKADFKLVKQNSSNVGYSYVGVYGWTRSPLVEYYIVDNWLSPFPPGDWVGNKKHGSFTIDGAQYTVYENTRTGPSIDGDTTFNQYFSIRQQARDCGTIDISAHFDQWEKLGMTMGKLHEAKVLGEAGNVNGGASGTADFPYAKVYIGD
notes: Endo-1,4-β-D-xylanase, glycoside hydrolase family 11, Neocallimastix patriciarum; printed Mw 25,800 g/mol; Commercial enzyme; also called GH11 xylanase; GH11 endoxylanase; source: bought: Megazyme Ltd
One may read the stoichiometry N as the number of molecules, sites or subunits per partner or assembly. B1: the “stoichiometry N” value was 2 and 3.

The values above are taken from publication PMC11898079, “Single-Molecule Imaging of Wood Xylans on Surfaces and Their Interaction with GH11 Xylanase” (Biomacromolecules, 2025).
